The Kd is the constant that tells how readily two partners part at equilibrium. Broadly, the koff is a measure of how fast the partners let go of each other. The term kon denotes the second-order rate constant of association. As usually defined, the EC50 is the concentration needed to bring the measured effect to its halfway point.

The values that follow come from patent US20230002503A1.

Assay [1] addresses human CAIX antigen (purchased from AcroBiosystems) (human) (UniProt Q16790). As to the kind of experiment: BLI (ForteBio), method of Example 3. (Biolayer interferometry detects binding as a change in optical thickness at a sensor tip.)
Assay [2] addresses monkey CAIX on CHO cells (CHO-cyCAIX) (monkey). Nature of the assay: flow cytometry on CHO-cyCAIX cells. (In general: A flow cytometer gives signals particle by particle.)
Assay [3] deals with human CAIX on CHO cells (CHO-hCAIX) (human) (UniProt Q16790). As to the kind of experiment: flow cytometry on CHO-hCAIX cells.
In assay [4] the target is murine CAIX on CHO cells (CHO-mCAIX) (mouse) (UniProt Q8VHB5). Nature of the assay: flow cytometry on CHO-mCAIX cells.
Sequence of murine CAIX on CHO cells (CHO-mCAIX) (mouse) (Q8VHB5 32-437): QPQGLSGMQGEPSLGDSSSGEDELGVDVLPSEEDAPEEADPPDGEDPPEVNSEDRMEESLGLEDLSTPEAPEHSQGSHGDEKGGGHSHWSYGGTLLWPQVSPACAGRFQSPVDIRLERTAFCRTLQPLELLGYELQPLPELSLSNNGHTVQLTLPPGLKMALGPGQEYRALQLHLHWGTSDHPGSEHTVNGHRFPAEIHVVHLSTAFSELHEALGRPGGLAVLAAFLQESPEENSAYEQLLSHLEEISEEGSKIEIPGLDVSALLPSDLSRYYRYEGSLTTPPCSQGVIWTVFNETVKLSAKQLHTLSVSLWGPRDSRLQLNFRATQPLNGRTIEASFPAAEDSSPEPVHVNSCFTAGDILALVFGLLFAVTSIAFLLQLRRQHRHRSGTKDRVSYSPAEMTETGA

In assay [1], Gerentuximab (antibody) gave a Kd of 1.01 nM, a koff of 0.0001 s⁻¹ and a kon of 98600 M⁻¹ s⁻¹. The substance also showed an EC50 in assay [2] of 27.9 nM. For the same substance, the EC50 in assay [3] amounted to 16.5 nM. The substance further yielded a 50% effective concentration (EC50) in assay [4] of 35.1 nM.
